# Source: the Human Domainome abundance scans (Beltran et al. 2025)
# ± gives the uncertainty stated by the source.
# B1: Nucleosome-remodeling factor subunit BPTF, residues 2862 to 2918; numbered along this chain, Q12830 (parent)
# chain: TKKDTKLYCICKTPYDESKFYIGCDRCQNWYHGRCVGILQSEAELIDEYVCPQCQST
# Variants of: B1
# Assay: abundance fitness (aPCA) (normalised: wild type 0, dead -1); higher = more abundant; growth selection in yeast, the domain comes from the species named
# Conditions: Homo sapiens
row,Variant,abundance fitness
1,K12I,-0.869 ± 0.14
2,K12H,-0.061 ± 0.097
3,I46E,-0.228 ± 0.13
4,I46Q,-0.058 ± 0.095
5,I46V,-0.073 ± 0.091
6,K3R,-0.131 ± 0.068
7,F20N,-0.044 ± 0.13
8,F20W,-0.083 ± 0.08
9,F20L,-0.193 ± 0.075
10,F20E,-0.002 ± 0.1
11,D47A,0.003 ± 0.073
12,D47E,0.101 ± 0.099
13,D47F,-0.219 ± 0.13
14,D47I,-0.227 ± 0.18
15,D47Q,0.077 ± 0.1
16,D47N,-0.03 ± 0.087
17,V36K,-0.531 ± 0.16
18,V36F,-0.832 ± 0.14
19,P52I,-0.108 ± 0.14
20,P52Y,-0.327 ± 0.14
21,P52L,-0.125 ± 0.076
22,K6P,0.034 ± 0.061
23,E42P,-0.342 ± 0.097
24,G37W,-0.681 ± 0.13

row,Variant,abundance fitness
1,G37L,-0.411 ± 0.08
2,G37Y,-0.418 ± 0.12
3,S56Y,-0.191 ± 0.45
4,P14L,-0.212 ± 0.085
5,P14Q,-0.263 ± 0.092
6,P14A,0.008 ± 0.08
7,P14M,-0.096 ± 0.095
8,P14K,-0.096 ± 0.1
9,A43H,0.013 ± 0.16
10,A43D,-0.392 ± 0.11
11,A43P,-0.167 ± 0.11
12,A43I,0.016 ± 0.12
13,G23C,-0.007 ± 0.12
14,G23Q,-0.079 ± 0.12
15,G23W,-0.177 ± 0.11
16,E48C,-0.009 ± 0.099
17,E48Q,-0.161 ± 0.12
18,S18N,-0.185 ± 0.14
19,S18L,-0.536 ± 0.1
20,S18T,-0.198 ± 0.12
21,S18F,-0.582 ± 0.14
22,Y21E,-0.245 ± 0.14
23,Y21P,-0.658 ± 0.14
24,E44P,-0.097 ± 0.094

row,Variant,abundance fitness
1,E44L,-0.11 ± 0.077
2,E44C,-0.137 ± 0.1
3,E44F,-0.089 ± 0.17
4,V50E,0.132 ± 0.15
5,V50C,-0.228 ± 0.095
6,V50I,-0.013 ± 0.095
7,I22R,-0.475 ± 0.073
8,I22L,0.015 ± 0.067
9,I22P,-0.87 ± 0.12
10,I22D,-0.819 ± 0.22
11,I22E,-0.953 ± 0.15
12,T5N,0.016 ± 0.063
13,T5V,-0.282 ± 0.06
14,T5W,-0.238 ± 0.11
15,T5D,0.028 ± 0.08
16,T13S,-0.116 ± 0.071
17,T13M,-0.176 ± 0.14
18,T13H,-0.518 ± 0.14
19,T13N,-0.297 ± 0.074
20,T13L,-0.292 ± 0.093
21,S41W,-0.207 ± 0.11
22,S41K,-0.015 ± 0.15
23,S41H,-0.152 ± 0.13
24,S41I,-0.507 ± 0.14

row,Variant,abundance fitness
1,K19H,0.007 ± 0.14
2,K19N,0.082 ± 0.18
3,K19E,0.106 ± 0.12
4,K19L,-0.059 ± 0.071
5,Y31M,-0.412 ± 0.088
6,T1P,-0.264 ± 0.18
7,T1N,0.018 ± 0.22
8,L45M,-0.219 ± 0.11
9,L45S,-0.075 ± 0.077
10,W30C,-0.123 ± 0.14
11,W30Y,0.083 ± 0.12
12,T57C,-0.003 ± 0.24
13,T57I,-0.115 ± 0.1
14,L39P,0.102 ± 0.28
15,L39R,-0.033 ± 0.34
16,R34Q,0.01 ± 0.097
17,R34A,0.026 ± 0.084
18,R34P,-0.144 ± 0.075
19,R34D,0.105 ± 0.1
20,R34W,-0.363 ± 0.12
21,Q28I,-0.342 ± 0.11
22,Q28A,-0.14 ± 0.094
23,Q28C,0.126 ± 0.12
24,I10N,-0.446 ± 0.18

row,Variant,abundance fitness
1,I10C,-0.245 ± 0.1
2,D4S,-0.008 ± 0.055
3,C54K,-0.613 ± 0.1
4,C54S,-0.889 ± 0.085
5,C51R,-0.743 ± 0.088
6,C51T,-0.981 ± 0.13
7,C51E,-0.75 ± 0.096
8,C51A,-0.777 ± 0.094
9,C51N,-0.904 ± 0.16
10,C51F,-0.916 ± 0.11
11,C24G,-0.909 ± 0.13
12,C24H,-0.972 ± 0.18
13,Q55V,-0.18 ± 0.08
14,I38K,-0.278 ± 0.13
15,I38R,-0.234 ± 0.075
16,I38M,-0.084 ± 0.13
17,I38L,-0.014 ± 0.072
18,I38W,-0.46 ± 0.12
19,C35M,-0.827 ± 0.13
20,C35H,-0.764 ± 0.12
21,C35V,-1.06 ± 0.15
22,C11Q,-0.947 ± 0.17
23,C11W,-1.09 ± 0.19
24,C11V,-1.03 ± 0.1

row,Variant,abundance fitness
1,C9K,-0.706 ± 0.17
2,C9H,-0.838 ± 0.077
3,C9F,-0.916 ± 0.071
4,Y15N,-0.593 ± 0.2
5,Y15W,-0.118 ± 0.094
6,Y15T,-0.303 ± 0.075
7,N29R,-0.061 ± 0.071
8,N29L,-0.198 ± 0.099
9,N29H,-0.062 ± 0.11
10,N29A,0.06 ± 0.2
11,Q40E,-0.036 ± 0.093
12,Q40F,-0.201 ± 0.2
13,Q40S,-0.049 ± 0.078
14,R26P,-0.207 ± 0.1
15,R26Y,-0.11 ± 0.094
16,R26L,-0.068 ± 0.065
17,R26W,-0.278 ± 0.14
18,R26H,0.064 ± 0.1
19,R26D,-0.029 ± 0.095
20,C27N,-0.674 ± 0.19
21,C27E,-0.785 ± 0.096
22,D16T,-0.366 ± 0.076
23,D16A,-0.441 ± 0.067
24,D16I,-0.624 ± 0.14

row,Variant,abundance fitness
1,D25I,-0.15 ± 0.16
2,D25S,0.054 ± 0.064
3,Q53Y,-0.266 ± 0.13
4,Q53T,0.054 ± 0.091
5,Q53W,-0.25 ± 0.14
6,Q53M,-0.139 ± 0.11
7,Q53S,-0.092 ± 0.089
8,H32L,-1.02 ± 0.085
9,Y8G,0.051 ± 0.12
10,Y8Q,0.054 ± 0.14
11,Y8I,-0.166 ± 0.12
12,Y8D,0.072 ± 0.13
13,G33F,-0.192 ± 0.082
14,G33A,-0.007 ± 0.064
15,G33M,-0.446 ± 0.12
16,L7T,-0.012 ± 0.062
17,L7P,-0.071 ± 0.068
18,L7A,-0.014 ± 0.071
19,L7F,-0.089 ± 0.073
20,L7Y,-0.022 ± 0.066
21,E17I,-0.155 ± 0.1
22,E17R,-0.304 ± 0.063
23,Y49S,-0.427 ± 0.075
